Source: article PMC11626198, “Molecular insights into the interaction between a disordered protein and a folded RNA”

T1: SERF (Small ERDK-Rich Factor) (Saccharomyces cerevisiae, UniProt Q3E7B7)
T1 sequence: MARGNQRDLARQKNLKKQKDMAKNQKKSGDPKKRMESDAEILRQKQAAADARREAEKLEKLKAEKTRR


Target: T1, SERF (Small ERDK-Rich Factor)
Assay: fluorescence anisotropy; 1:1 model, KD,app; Anisotropy buffer not given in the material; NMR at 27 C; native IM-MS in 100 mM ammonium acetate pH 7.5
Settings: protein: recombinant, tags: His6-SUMO removed by ULP1 (scarless)

Row | Binder | Kd (hairpin with UCU bulge and hexanucleotide loop) [nM] | Kd (single strand) [nM]
1 | GGCAGAUCUGAGCCUGGGAGCUCUCUGCC (structured_RNA) [FAM-TAR] | 670 ± 40 | –
2 | UUUUUUUUUUUUUUUUUUUUUUUUUUUUUU (ssRNA) [FAM-(rU)30] | – | 1900 ± 200
